Reference: PMC9582194, “The effect of helix-inducing constraints and downsizing upon a transcription block survival-derived functional cJun antagonist” (Cell Reports. Physical Science, 2022)
Positions of bridges follow the written chain, without caps; N, C: chain ends.

Assays:
[1] = target: T1, cJun (60 amino acid construct encompassing the entire bZIP domain) (UniProt P05412 252-315); test: CD thermal denaturation; peptide (5 μM) with cJun (5 μM); ellipticity at 222 nm, 1°C to 90°C; 20 mM potassium phosphate, 150 mM potassium fluoride, 2 mM TCEP, pH 7.4; two-state fit gives the Tm of the peptide-cJun heterodimer; duplicate experiments; conditions: both partners purified
[2] = target: T1, cJun (60 amino acid construct …); test: cell-based or functional assay

T1 sequence (P05412 252-315): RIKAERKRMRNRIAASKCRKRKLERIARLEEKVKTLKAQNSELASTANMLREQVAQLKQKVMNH

Binder | Tm of the peptide-cJun heterodimer [1] [°C] | IC50 CD: peptide added to pre-incubated cJun (20 μM) and TRE DNA (5 μM); blocks cJun/TRE DNA binding [2] [µM]
Ac-KEAEDLVVEEDVLEEEIEQLEERNYALRKEIKDLQDQ-NH2 (lactam 1-5, cyclized form of the pair HW18/HW19; NΔ19 CΔ7; source: synthetic peptide (Fmoc SPPS, on-resin lactamization, RP-HPLC purified)) [HW19] | 58.5 | 92.5
Ac-EAEELVVEEDVLEEEIEQLEERNYALRKEIEDLQ-NH2 (linear form of the pair HW16/HW17; NΔ20 CΔ9; source: synthetic peptide (Fmoc SPPS, RP-HPLC purified)) [HW16] | 53.8 | 725
Ac-LARENEELEKEAEELVVEEDVLEEEIEQLEERNYALRKEIEDLQKQLEKL-NH2 (truncation NΔ10 CΔ3 of HW1; source: synthetic peptide (Fmoc SPPS, RP-HPLC purified)) [HW2] | 68.5 | 16.6
Ac-EAEELVVEEDVLEEEIEQLEEKNKALKDEIEDLY-NH2 (lactam 24-28; SMILES CC[C@H](C)[C@H](NC(=O)[C@H](CCC(=O)O)NC(=O)[C@@H]1CC(=O)NCCCC[C@H](NC(=O)[C@H](CC(N)=O)NC(=O)[C@H](CCCCN)NC(=O)[C@H](CCC(=O)O)NC(=O)[C@H](CCC(=O)O)NC(=O)[C@H](CC(C)C)NC(=O)[C@H](CCC(N)=O)NC(=O)[C@H](CCC(=O)O)NC(=O)[C@@H](NC(=O)[C@H](CCC(=O)O)NC(=O)[C@H](CCC(=O)O)NC(=O)[C@H](CCC(=O)O)NC(=O)[C@H](CC(C)C)NC(=O)[C@@H](NC(=O)[C@H](CC(=O)O)NC(=O)[C@H](CCC(=O)O)NC(=O)[C@H](CCC(=O)O)NC(=O)[C@@H](NC(=O)[C@@H](NC(=O)[C@H](CC(C)C)NC(=O)[C@H](CCC(=O)O)NC(=O)[C@H](CCC(=O)O)NC(=O)[C@H](C)NC(=O)[C@H](CCC(=O)O)NC(C)=O)C(C)C)C(C)C)C(C)C)[C@@H](C)CC)C(=O)N[C@@H](C)C(=O)N[C@@H](CC(C)C)C(=O)N[C@@H](CCCCN)C(=O)N1)C(=O)N[C@@H](CCC(=O)O)C(=O)N[C@@H](CC(=O)O)C(=O)N[C@@H](CC(C)C)C(=O)N[C@@H](Cc1ccc(O)cc1)C(N)=O, cyclized form of the pair HW14/HW15; NΔ20 CΔ10; source: synthetic peptide (Fmoc SPPS, on-resin lactamization, RP-HPLC purified)) [HW15] | 52.5 | 118
Ac-EAEELVVEEDVLEEEIEQLEEKNKALKDEIEDLQKQY-NH2 (linear form of the pair HW26/HW27; NΔ20 CΔ7; source: synthetic peptide (Fmoc SPPS, RP-HPLC purified)) [HW26] | 56.2 | 121
Ac-EAKELVDEEDVLEEEIEQLEERNYALRKEIEDLQKQ-NH2 (linear form of the pair HW20/HW21; NΔ20 CΔ7; source: synthetic peptide (Fmoc SPPS, RP-HPLC purified)) [HW20] | 57.5 | 100
Ac-EAEELVVEEDVLEEEIEQLEERNYALRKEIKDLQDQ-NH2 (linear form of the pair HW28/HW29; NΔ20 CΔ7; source: synthetic peptide (Fmoc SPPS, RP-HPLC purified)) [HW28] | 55.6 | 101
Ac-EAEELVVEEDVLEEEIKQLEDRNYALRKEIEDLQKQ-NH2 (linear form of the pair HW24/HW25; NΔ20 CΔ7; source: synthetic peptide (Fmoc SPPS, RP-HPLC purified)) [HW24] | 55.5 | 98.9
Ac-EAEELVVEEKVLEDEIEQLEERNYALRKEIEDLQKQ-NH2 (linear form of the pair HW22/HW23; NΔ20 CΔ7; source: synthetic peptide (Fmoc SPPS, RP-HPLC purified)) [HW22] | 54.9 | 114
Ac-EAKELVDEEDVLEEEIEQLEERNYALRKEIEDLQKQ-NH2 (lactam 3-7; SMILES CC[C@H](C)[C@H](NC(=O)[C@H](CCC(=O)O)NC(=O)[C@H](CCCCN)NC(=O)[C@H](CCCNC(=N)N)NC(=O)[C@H](CC(C)C)NC(=O)[C@H](C)NC(=O)[C@H](Cc1ccc(O)cc1)NC(=O)[C@H](CC(N)=O)NC(=O)[C@H](CCCNC(=N)N)NC(=O)[C@H](CCC(=O)O)NC(=O)[C@H](CCC(=O)O)NC(=O)[C@H](CC(C)C)NC(=O)[C@H](CCC(N)=O)NC(=O)[C@H](CCC(=O)O)NC(=O)[C@@H](NC(=O)[C@H](CCC(=O)O)NC(=O)[C@H](CCC(=O)O)NC(=O)[C@H](CCC(=O)O)NC(=O)[C@H](CC(C)C)NC(=O)[C@@H](NC(=O)[C@H](CC(=O)O)NC(=O)[C@H](CCC(=O)O)NC(=O)[C@H](CCC(=O)O)NC(=O)[C@@H]1CC(=O)NCCCC[C@H](NC(=O)[C@H](C)NC(=O)[C@H](CCC(=O)O)NC(C)=O)C(=O)N[C@@H](CCC(=O)O)C(=O)N[C@@H](CC(C)C)C(=O)N[C@@H](C(C)C)C(=O)N1)C(C)C)[C@@H](C)CC)C(=O)N[C@@H](CCC(=O)O)C(=O)N[C@@H](CC(=O)O)C(=O)N[C@@H](CC(C)C)C(=O)N[C@@H](CCC(N)=O)C(=O)N[C@@H](CCCCN)C(=O)N[C@@H](CCC(N)=O)C(N)=O, cyclized form of the pair HW20/HW21; NΔ20 CΔ7; source: synthetic peptide (Fmoc SPPS, on-resin lactamization, RP-HPLC purified)) [HW21] | 59.4 | 81.1
Ac-EAEELVVEEDVLEEEIKQLEDRNYALRKEIEDLQKQ-NH2 (lactam 17-21; SMILES CC[C@H](C)[C@H](NC(=O)[C@H](CCC(=O)O)NC(=O)[C@H](CCCCN)NC(=O)[C@H](CCCNC(=N)N)NC(=O)[C@H](CC(C)C)NC(=O)[C@H](C)NC(=O)[C@H](Cc1ccc(O)cc1)NC(=O)[C@H](CC(N)=O)NC(=O)[C@H](CCCNC(=N)N)NC(=O)[C@@H]1CC(=O)NCCCC[C@H](NC(=O)[C@@H](NC(=O)[C@H](CCC(=O)O)NC(=O)[C@H](CCC(=O)O)NC(=O)[C@H](CCC(=O)O)NC(=O)[C@H](CC(C)C)NC(=O)[C@@H](NC(=O)[C@H](CC(=O)O)NC(=O)[C@H](CCC(=O)O)NC(=O)[C@H](CCC(=O)O)NC(=O)[C@@H](NC(=O)[C@@H](NC(=O)[C@H](CC(C)C)NC(=O)[C@H](CCC(=O)O)NC(=O)[C@H](CCC(=O)O)NC(=O)[C@H](C)NC(=O)[C@H](CCC(=O)O)NC(C)=O)C(C)C)C(C)C)C(C)C)[C@@H](C)CC)C(=O)N[C@@H](CCC(N)=O)C(=O)N[C@@H](CC(C)C)C(=O)N[C@@H](CCC(=O)O)C(=O)N1)C(=O)N[C@@H](CCC(=O)O)C(=O)N[C@@H](CC(=O)O)C(=O)N[C@@H](CC(C)C)C(=O)N[C@@H](CCC(N)=O)C(=O)N[C@@H](CCCCN)C(=O)N[C@@H](CCC(N)=O)C(N)=O, cyclized form of the pair HW24/HW25; NΔ20 CΔ7; source: synthetic peptide (Fmoc SPPS, on-resin lactamization, RP-HPLC purified)) [HW25] | 60.9 | 94.4
Ac-LVVEEDVLEEEIEQLEERNYALRKEIEDLQKQLEDL-NH2 (linear form of the pair HW12/HW13; NΔ24 CΔ3; source: synthetic peptide (Fmoc SPPS, split batch, RP-HPLC purified)) [HW12] | 62.1 | 94.6
Ac-LVVEEDVLEEEIEQLEEKNKALKDEIEDLQKQLEKLY-NH2 (lactam 20-24; SMILES CC[C@H](C)[C@H](NC(=O)[C@H](CCC(=O)O)NC(=O)[C@@H]1CC(=O)NCCCC[C@H](NC(=O)[C@H](CC(N)=O)NC(=O)[C@H](CCCCN)NC(=O)[C@H](CCC(=O)O)NC(=O)[C@H](CCC(=O)O)NC(=O)[C@H](CC(C)C)NC(=O)[C@H](CCC(N)=O)NC(=O)[C@H](CCC(=O)O)NC(=O)[C@@H](NC(=O)[C@H](CCC(=O)O)NC(=O)[C@H](CCC(=O)O)NC(=O)[C@H](CCC(=O)O)NC(=O)[C@H](CC(C)C)NC(=O)[C@@H](NC(=O)[C@H](CC(=O)O)NC(=O)[C@H](CCC(=O)O)NC(=O)[C@H](CCC(=O)O)NC(=O)[C@@H](NC(=O)[C@@H](NC(=O)[C@H](CC(C)C)NC(C)=O)C(C)C)C(C)C)C(C)C)[C@@H](C)CC)C(=O)N[C@@H](C)C(=O)N[C@@H](CC(C)C)C(=O)N[C@@H](CCCCN)C(=O)N1)C(=O)N[C@@H](CCC(=O)O)C(=O)N[C@@H](CC(=O)O)C(=O)N[C@@H](CC(C)C)C(=O)N[C@@H](CCC(N)=O)C(=O)N[C@@H](CCCCN)C(=O)N[C@@H](CCC(N)=O)C(=O)N[C@@H](CC(C)C)C(=O)N[C@@H](CCC(=O)O)C(=O)N[C@@H](CCCCN)C(=O)N[C@@H](CC(C)C)C(=O)N[C@@H](Cc1ccc(O)cc1)C(N)=O, cyclized form of the pair HW10/HW11; NΔ24 CΔ3; source: synthetic peptide (Fmoc SPPS, on-resin lactamization, RP-HPLC purified)) [HW11] | 67.2 | 73.5
Ac-KEAEDLVVEEDVLEEEIEQLEERNYALRKEIKDLQDQ-NH2 (linear form of the pair HW18/HW19; NΔ19 CΔ7; source: synthetic peptide (Fmoc SPPS, RP-HPLC purified)) [HW18] | 56.5 | 115
Ac-LVVEEDVLEEEIEQLEERNYALRKEIEDLQKQLEDL-NH2 (lactam 31-35, cyclized form of the pair HW12/HW13; NΔ24 CΔ3; source: synthetic peptide (Fmoc SPPS, on-resin lactamization, RP-HPLC purified)) [HW13] | 68.3 | 69
Ac-EAEELVVEEDVLEEEIEQLEERNYALRKEIEDLQ-NH2 (lactam 28-32, cyclized form of the pair HW16/HW17; NΔ20 CΔ9; source: synthetic peptide (Fmoc SPPS, on-resin lactamization, RP-HPLC purified)) [HW17] | 57.2 | 140
Ac-LVVEEDVLEEEIEQLEEKNKALKDEIEDLQKQLEKLY-NH2 (linear form of the pair HW10/HW11; NΔ24 CΔ3 with point mutations for the bridging K and D; source: synthetic peptide (Fmoc SPPS, split batch, RP-HPLC purified)) [HW10] | 64.3 | 83.9
